From the NTF2 design screens of Basanta et al. (2020) come the findings set out here.

The series can be described thus: protease stability score; higher = more stable; yeast display proteolysis, trypsin and chymotrypsin.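 Further: log10 excess protease needed over predicted unfolded state with 0 meaning unfolded.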

“DEERMHRLKKLFDTNDNEQMSKQASENARMQVGNKVFHGREDIEKFILEERRRADHITYKHVTEHGNKVQAHVVKVVNGRSIDVIFEVEIDNGRIKRMSIQARDSEDQNKAEKALS” yielded a protease stability score of 0.345.
For “DEERMLKVAETVIRAVRNGNADKAVKYIDEGGEATFGDTKLKGPEHIYEYVKKFKDQGIEVHYKEEHKEGDKVTVHTQAHLGDATADFEVHYQVKGDKLDRMEVRMDKEQLKKFRDS” the value was -0.347; for “DEERNEKAAHEMLKVFQRGDPDQFRDLIDPNARANVGDKKYHGRENLTHMFKHFVHRADHLEMQHVKVSGETVEIHIRAKINGKTIDFTIRIIVDNGKAREINFDPDMLKRMRG”, 1.23; for “DEERNELAEHVVKAWHHNDPDRVQKLVDPNVRFEIGDKEVHGREEYARIQRTEKDQWDLQIEVKHITVHNGRVDVDFDWRIERDGRPRTNQQVVIFEVDNGKVKRVSFQERK”, -0.279.
Next, “DEERNERHAQDLMRALENNDEERLRQLLDKDAKLNVGDHEIHGSENIVKRLAEFLKRADHLRFERMTVRGDTVQISFEVEHDGERRKYEVHITVHNGHVQSITIQKQ”: 2.49.
Next, “DEERNKEMKEVLETNDFKDLANQADENAKAQIGDKEYHGREEVRDAMKSLQERIDSVEVRDIHVQGDKFSIEAVMDVDGDKVDVVIEMRVHNGNIKFVRINARNESVKEKVEQVVS”: 1.79.
“DEERQDQAEEFWKILQTGDPDKAREELRDDVHVHVGDKVIHGMEDVDRDIERVRKQIRVEFDVRHIDSQGERISVEANIMENENGKPETAQLTVIIDMHNGRVVRIVFEKRK” showed a protease stability score of 1.96.
Next, “DEERQHRVAKSLVDILKDGNPRKMKELMDKDATVRVGDKNIRGRKNIATFWTDVRRRIDHVEIKHVDVRGDKIDMNINFDVNGRHVHYTINARVRNGKLTSMHLDPDNLEHLKE”: 0.591.
For the sequence “DEERQKEALKVHKKGDFDKILDQADEDVQVVIGDKKYHGREEATTALKKILDSIDHLKFESITIQNGRVRVDAILEFNGQQNRVIIVVEVHNGKVKKVEIRVTDPSQEDKLKKRVD”, the protease stability score was -0.203.
In turn, “DEERQQKVADDLATIMTNGNPDQMLELADKDVKAKYGDTEIHGREKVREYWKTIRDQADHIHIDTFKAENGQVDIQAHAKFNGKDYKFNLRIEFDNGRIKSIVVQEQ” gave a protease stability score of 0.278.
In turn, “DEERRDLAHRIFEAWKRNDPDTLRNLIDPNAKMVVGEDVLRGDEQIVKHVQDVHNRINMKIDIKSVRVEGDKVIVHAEVTANVNGRPVRIEVTFVIKNHNGKVKKIVIDVDPRDQRKMDS” came in with a protease stability score of -0.13.
“DEERRKNLAREYNKALTSGDENKVRRLADENVRIEIGDHVVSGRENLSKLVRDDQERVDRFRVQDVHVEGDKIQFDIQVEINGKTINITIEMQLHNGRIKKIKFDPRAVEQLKG”: the protease stability score came to 0.612.
As to “DEERSAHKFLKDMEKLMRTGDFQEVAKLFDKHAKVEVGDKRVHGREQIIRTNQQWEKRVDSVDLKIQHVSVKGEDVDVHYNMVLRYNGRNDNRVYRFVATVHGDKVRITHMELE”, the protease stability score turned out to be 0.348.
For “DEERSNLVESVFRALEHNDEKRLNELFDPNVNVQIGDDKIRGREELVKFMRTLKRQMRIRYRTMDLHVQGDKVVVRATFEVNVNGTPHNVTMEFHAEVHNGKFKHARIKIPEEKLKTMQS” the value was 1.57; for “DEERVERLARTAFKAAVNGDEDKLRKMLKPDVKYKYIDEEREGEDVAKFVVKLMKKIGAEVRLKRLEVRGDTVKADFDYKQGDKTVRTKAEVKYKGDKVDEARVELTDEVKKVLTRG”, 0.125; for “DEERVHQAVRIIKHNDPDKLRKLADPNAKFQVGDREIHGMEEYADIVAQIMEKADKITFTDIQVHNGRLTIEVVINVNGRNIQFQIFLEFHNGKLKHAHIQATSEEVQRQLNSLMG”, 0.674.
Next, “DEERVKDLVKKIFKDIRNGDEERVRKKGKPDVKYEYADKTFEGEDAVRFIVEILKKVGAEDKTQNETVHGDKAQANFQYDKGDQTAQTTAQVEYKGDKVDKMRVKISEEVKKVVEQG”: -0.116; “DEERVKQLAEKAFKAIQNNDQEKLEKMGKPNVQYEYVDKKYEGPEVVKVVIKVVQKIGAKLETQEQEVKGDTARATFQYKNGDKTMQTTAEVRYKGDKMEEFRMELSDEVKKVVHQG”: -0.207.
